System: albumin-bound form of EMC-Arg-Ser-Ser-Tyr-Tyr-Ser-Leu-PABC-DOXO (6)

## prostate-specific antigen (PSA)
  PSA-mediated cleavage monitored by HPLC (enzyme activity): cleaved efficiently within a few hours
